This note sets out measurements from patent US12545899B2, “Luciferase enzymes for use with thermostable luciferins in bioluminescent assays” (Promega Corporation, priority 2018, dated 2026).

Data set [1] can be described thus: Kinetic analysis of ATG-2889 with CS0333 versus luciferin (FIG. 16B). The class given is biochemical. As to the method: FIG. 16B provides similar results. […] The composition was incubated for 3 mins prior to quantification.
Data set [2] is described as follows: Activity of ATG-2889 variants (positions 344/396) with CS0333. The conditions noted are these: substrate CS0333. The class given is biochemical. The text has this:
(§1) Additionally, several other amino acid substitutions, including those not considered to be conservative or semi-conservative, were made to ATG-2889, as shown below in Table 2.

Data set [3] is described as follows: Effect of V300G, L305F, S306P on activity with CS0333 (FIG. 13). It counts as biochemical. The conditions noted are these: 1 mM ATP; 100 nM to 1 mM substrate; Bright-Glo buffer. As to the method:
FIG. 13 includes a representative graph of the effects of amino acid substitutions V300G, L305F, and S306P on enzyme activity with the CS0333 analog. Reagent compositions included […]+1 mM ATP+100 nM to 1 mM substrate in Bright-Glo™ buffer.

A short description of data set [4]: Activity of ATG-2889 variants (positions 344/396) with D/L-luciferin. It counts as biochemical. The conditions noted are these: substrate D/L-luciferin.
From the text: as §1

Data set [5] can be described thus: E. coli lysate activity of position 244/339 variants with CS0333 (FIG. 7). The class given is biochemical. The conditions noted are these: E. coli lysates; Detection Reagent; 0.5 mM substrate; 1 mM ATP; 3 mins. As to the method: FIG. 7 includes a representative graph assessing the activities of luciferase enzyme variants with amino acid substitutions at positions 244 and 339 of SEQ ID NO: 1 in the presence of 5,5-disubstituted luciferin analog substrate. Assays were prepared by combining overnight E. coli culture expressing enzymes with Detection Reagent+ATP+substrate (luciferin analog compounds CS0280, CS0333, CS0510, and CS0326), and luminescence was read at 3 mins. Reagent compositions included 50 μl lysate of the thermostable luciferase variant of Ppe variant of SEQ ID NO: 1, 0.5 mM substrate, and 1 mM ATP.

Data set [6] can be described thus: Km for ATP with saturating substrate (FIG. 18). The conditions noted are these: with CS0333, relative to Ppe variant with luciferin. It counts as biochemical. As to the method: Reagent composition included 1 mM substrate, 100 fM-100 uM ATP (10-fold dilutions), and 0.1 mg/ml enzyme. […] Thus, the combination of the ATG-3674 luciferase enzyme variant with the thermostable CS0333 luciferin analog substrate will be effective in ATP detection/quantification assays.

Data set [7] in a line: Luminescence at 1 mM CS0333 (Table 11). It counts as biochemical. The conditions noted are these: 1 mM substrate, 1 mM ATP. From the text:
(§2) Tables 10 and 11 include representative results of kinetic analysis of the thermostable variants with D/L luciferin, CS0333, and CS0280. […] MK0135 and MK0137 have amino acid substitutions that improve thermostability relative to MK0133 and MK0134, respectively, while retaining activity on the luciferin analogs CS0333 and CS0280.

Data set [8] is described as follows: Vmax and Km of Ppe variant and ATG-3707 with D/L-luciferin. The class given is biochemical.
Data set [9] in a line: Differential scanning fluorimetry (DSF) analysis. The class given is physicochemical. The conditions noted are these: Table 9A. An outline of the steps:
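Thermal melt with 5× final Sypro Orange: ramp 1° C/min from 30 to 95° C, reading each 60 s, derivative of fluorescence plotted by temperature. Luciferase variants were in 20 mM HEPES pH 7.5, 200 mM NaCl, 1 mM EDTA; other enzymes in 50 mM HEPES pH 7.5, 100 mM NaCl, 2 mM EDTA.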

Data set [10] can be described thus: Kinetic analysis of Ppe variant, ATG-3707, ATG-4117 with D/L-luciferin. The class given is biochemical. The method, then: Kinetic tests of these luciferase enzyme variants were also conducted. […] Reagent compositions included 0.005 mg/ml luciferase enzyme variant+1 mM ATP, and 0.1 fM to 1 mM substrate in Bright-Glo™ (BG) or Detection Reagent (DR) buffers. The composition was incubated for 3 mins and read on GloMax® Multi+platform.
Table 8 below includes representative results of kinetic analysis of the thermostable luciferase variants of Ppe (SEQ ID NO: 1), ATG-3707, and ATG-4117. The Ppe variant (SEQ ID NO: 1) was tested with D/L-luciferin, and ATG-3707, and ATG-4117 were tested with CS0280 and CS0333.

A short description of data set [11]: Kinetic analysis of thermostable variants with D/L-luciferin (Table 10). It counts as biochemical. As to the method:
Experiments were also conducted to evaluate the activities (i.e. Vmax and Km) of the various thermostable luciferase variants of Ppe (SEQ ID NO: 1) described above.
as §2

Data set [12] is described as follows: Kinetic analysis of thermostable variants with D/L-luciferin (Tables 13, 14). It counts as biochemical. The conditions noted are these: 2 mM ATP.
The nature of data set [13]: Luminescence at 1 mM D/L-luciferin (Table 11). The class given is biochemical. The conditions noted are these: 1 mM substrate, 1 mM ATP.
From the text: as §2

Data set [14] in a line: Luminescence at 1 mM CS0280 (Table 11). The class given is biochemical. The conditions noted are these: 1 mM substrate, 1 mM ATP.
From the text: as §2

The nature of data set [15]: Activity of ATG-2671 with luciferin analogs. It counts as biochemical. The conditions noted are these: data not shown. As to the method: FIG. 15 includes representative graphs of kinetic activity of the luciferase enzyme variant ATG-2671 with D/L-luciferin. […] The composition was incubated for 3 mins and read on GloMax® Multi+platform.

Residue numbers refer to the chain shown, from its start. Names and notes keep the numbering of the source.

B1: ATG2889: SEQ ID NO: 12; H244W+T344A+I396K (protein)
chain: MADKNILYGPEPFYPLEDGTAGEQMFDALSRYAAIPGCIALTNAHTKENVLYEEFLKLSCRLAESFKKYGLKQNDTIAVCSENSLQFFLPVIASLYLGIIVAPVNDKYIERELIHSLGIVKPRIVFCSKNTFQKVLNVKSKLKSIETIIILDLNEDLGGYQCLNNFISQNSDSNLDVKKFKPYSFNRDDQVASIMFSSGTTGLPKGVMLTHKNIVARFSIAKDPTFGNAINPTSAILTVIPFHWGFGMMTTLGYFTCGFRVVLMHTFEEKLFLQSLQDYKVESTLLVPTLMAFLAKSALVEKYDLSHLKEIASGGAPLSKEIGEMVKKRFKLNFVRQGYGLTEATSAVLITPKGDAKPGSTGKIVPLHAVKVVDPTTGKILGPNEPGELYFKGPMKMKGYYNNEEATKAIIDNDGWLRSGDIAYYDNDGHFYIVDRLKSLIKYKGYQVAPAEIEGILLQHPYIVDAGVTGIPDEAAGELPAAGVVVQTGKYLNEQIVQDYVASQVSTAKWLRGGVKFLDEIPKGSTGKIDRKVLRQMLEKHTNGHHHHHHHH
B1: the “Vmax with CS0333 lower than the Vmax for luciferin” value in [1] (Bright-Glo Buffer) was determined as 23.1 fold; in data set [1] (Detection Reagent buffer), 42.9 fold. Besides, the “activity with CS0333” value in [2] is 679219. In addition, the “activity with CS0333 relative to Ppe variant (SEQ ID NO: 1)” value in data set [3] is recorded as “improved activity”. Besides, the “activity with D/L-luciferin” value in [4] is listed as 5507240. Further, in [5], the “activity above background with CS0333” value was “approximately 285 fold”.

B2: ATG-3674: SEQ ID NO: 25; H244W+T344A+I396K+S193A+N228D+L305F+S306P (protein)
chain: B1 chain with S193A, N228D, L305F, S306P
Turning to B2, the “Km values for ATP” value in data set [6] is “equivalent to improved Km values for ATP”.

B3: Ppe variant: thermostable luciferase variant of Photuris pennsylvanica (Ppe) of SEQ ID NO: 1 (protein)
chain: B1 chain with W244H, V300C, A344T, K396I
With B3, the “Vmax (RLU) CS0333 BrightGlo Buffer” value in data set [7] (BrightGlo Buffer) is listed as 862 RLU. Further, the “Vmax (RLU) CS0333 Detection Reagent Buffer” value in [7] (Detection Reagent Buffer) is 724 RLU. Further, the Km in [8] (BrightGlo Buffer) was found to be 0.315 µM; in [8] (CellTiterGlo buffer), 1060 µM; in data set [8] (Detection Reagent Buffer), 10.8 µM; in data set [10] (BrightGlo) it was 0.466 µM; in data set [10] (Detection Reagent), 11 µM; in data set [11] (BrightGlo Buffer) it was 0.667 µM. Besides, the Km stood at 9.38 µM in data set [11] (Detection Reagent Buffer), 1.03 µM in data set [12] (BrightGlo Buffer) and 28.3 µM in [12] (Detection Reagent Buffer). In addition, the “Vmax (RLU)” value is 23,319,814 RLU in [8] (BrightGlo Buffer); 5,771,822 RLU in [8] (CellTiterGlo buffer); 10,017,520 RLU in data set [8] (Detection Reagent Buffer); 23,226,184 RLU in data set [10] (BrightGlo); 12,592,733 RLU in data set [10] (Detection Reagent); 18,332,536 RLU in [11] (BrightGlo Buffer). For the same molecule, the “Vmax (RLU)” value in data set [11] (Detection Reagent Buffer) was 9,350,431 RLU; in data set [12] (BrightGlo Buffer), 14,958,892 RLU; in data set [12] (Detection Reagent Buffer) it was 5,686,042 RLU. Also, in [9], the “DSF Tm (° C.)” value was determined as 79 °C. Further, the “activity with CS0333” value in data set [2] amounted to 178. Further, the “Vmax (RLU) D/L-luciferin BrightGlo Buffer” value in data set [13] (BrightGlo Buffer) was 30,177,800 RLU. Besides, in data set [13] (Detection Reagent Buffer), the “Vmax (RLU) D/L-luciferin Detection Reagent Buffer” value is 17,201,600 RLU. Further, the “Vmax (RLU) CS0280 BrightGlo Buffer” value in data set [14] (BrightGlo Buffer) is listed as 3,689 RLU. In [14] (Detection Reagent Buffer), the “Vmax (RLU) CS0280 Detection Reagent Buffer” value came to 394 RLU. Moreover, the “activity with D/L-luciferin” value in data set [4] came to 7118320. The “activity above background with CS0333” value in data set [5] is reported as “below background (inhibited)”.

B4: ATG-2671: luciferase enzyme variant ATG-2671 (G245A+L285I+G315A) (protein)
chain: B1 chain with W244H, G245A, L285I, V300C, G315A, A344T, K396I
In the case of B4, the “activity with luciferin analogs” value in [15] is reported as “not active”.
